Experimental findings from PMC8389850, “The PilB-PilZ-FimX regulatory complex of the Type IV pilus from Xanthomonas citri” (PLoS Pathogens, 2021) are described below.

Broadly, the Kd is the free concentration of one partner at which half of the binding sites on the other are occupied at equilibrium, for simple one-to-one binding. A word on the stoichiometry N: it is the number of molecules, sites or subunits per partner or assembly.

Experiment [1] concerns the target PilZ_(W69_5OHW) (Xanthomonas citri pv. citri strain 306). As to the kind of experiment: other fluorescence titration.
Experiment [2] has as its target full-length FimX (Xanthomonas citri pv. citri strain 306). As to the kind of experiment: SEC-MALS; full-length proteins and complexes; silica-based WTC column 7.8/300; 50 mM Tris-HCl pH 8.0, 50 mM NaCl, 5 mM MgCl2; without and with ATPγS and/or c-di-GMP (1:2 protein to ligand). For orientation: SEC sorts molecules by how far they enter the pores of the column.
Experiment [3] has as its target PilB_(1-190), His tag removed (Xanthomonas citri pv. citri strain 306). As to the kind of experiment: SEC-MALS.
Experiment [4] addresses PilB_(12-163) (Xanthomonas citri pv. citri strain 306). Put plainly: SEC-MALS.

In turn, FimXEAL (domain or fragment) showed an equilibrium dissociation constant (Kd) in experiment [1] of 200 nM. That is a sub-micromolar value. In turn, full-length FimX (natural protein) returned a stoichiometry N in experiment [2] of 2. As for “His-tagged PilB_(1-190) (from UniProt A0AAI7ZH88 1-190) (domain or fragment)”, the Kd in experiment [1] was below 4.1 nM. “PilZ (XAC1133), wild type, recombinant (from UniProt A0AAI7ZDW4 1-117) (natural protein)”: the stoichiometry N in experiment [3] and in experiment [4] was 1 each time.
